“And” between values parts separate entries of the source, which are not always exact repeats. Equal entries are not always repeated. One block for each molecule: values may come before it.
Assays:
[1] = target: SUN domain of human SUN1 (amino-acids 616-812) (human); assay: crystal structure; co-expressed and co-purified SUN1-KASH6 at 12 mg/ml; sitting drops, 20 °C; MES pH 6.0 (1.7 Å), Bis Tris pH 5.5 (2.3 Å), sodium citrate pH 5.5 (2.0 Å)
[2] = target: SUN domain of human SUN1 (amino-acids 616-812) (human); assay: SEC-MALS; untreated (native) co-purified complex; 8-13 mg/ml loaded on Superdex 200 Increase 10/300 GL in 20 mM Hepes pH 7.5, 150 mM KCl, 2 mM DTT
[3] = target: SUN domain of human SUN1 (amino-acids 616-812) (human); assay: SEC-MALS; co-purified complex treated overnight in 20 mM sodium acetate pH 5.0, 150 mM KCl, 10% glycerol, 2 mM DTT, then analysed in 20 mM Hepes pH 7.5, 150 mM KCl, 2 mM DTT
[4] = target: SUN domain of human SUN1 (amino-acids 616-812) (human); assay: SEC-MALS; untreated (native) co-purified complex; 8-13 mg/ml loaded on Superdex 200 Increase 10/300 GL in 20 mM Hepes pH 7.5, 150 mM KCl, 2 mM DTT; remark: listed apart in the source
[5] = target: SUN domain of human SUN1 (amino-acids 616-812) (human); assay: crystal structure; co-expressed and co-purified SUN1-KASH6 at 12 mg/ml; sitting drops, 20 °C; MES pH 6.0 (1.7 Å), Bis Tris pH 5.5 (2.3 Å), sodium citrate pH 5.5 (2.0 Å); remark: listed apart in the source
[6] = target: the molecule itself; assay: as above

stoichiometry N [1]: 9
stoichiometry N [2]: 6
stoichiometry N [3]: 9 and 6
Molecule: SUN domain of human SUN1 (amino-acids 616-812) (domain or fragment)

percent (by mass) as 6:6 complex [4]: 40 % (by mass)
percent (by mass) as 9:6 complex [4]: 60 % (by mass)
stoichiometry N (KASH6 per SUN1) [4]: 1 and 0.67
B1: KASH6 core H539K (human JAW1/LRMP amino-acids 531-555) (peptide)
chain: EDSWTSLEKILWPFTRLRHNGPPPV

stoichiometry N (KASH6 per SUN1) [4]: 1
stoichiometry N (KASH6 per SUN1) [3]: 0.67 and 1
stoichiometry N (KASH6 per SUN1) [5]: 0.67
B2: KASH domain of human JAW1/LRMP (KASH6, amino-acids 515-555) (peptide, UniProt Q12912 515-555, looked up)
chain: TGQLFQKSVDAAPTQQEDSWTSLEHILWPFTRLRHNGPPPV
notes: JAW1/LRMP (lymphoid restricted membrane protein), human, KASH domain, amino-acids 515-555; KASH6α, KASH6β and KASH6γ are the same peptide in three conformations or sites of the crystal structure; also called KASH6α; KASH6β; not shown: His6, N-terminal, cleaved; MBP, N-terminal, cleaved
binding result [6]: binds

stoichiometry N (KASH6 per SUN1) [4]: 1
percent (by mass) as 6:6 complex [3]: 15 % (by mass)
percent (by mass) as 9:6 complex [3]: 85 % (by mass)
stoichiometry N (KASH6 per SUN1) [3]: 0.67
B3: KASH6 core (human JAW1/LRMP amino-acids 531-555) (peptide)
chain: EDSWTSLEHILWPFTRLRHNGPPPV

percent (by mass) as 6:6 complex [3]: 55 % (by mass)
percent (by mass) as 9:6 complex [3]: 45 % (by mass)
stoichiometry N (KASH6 per SUN1) [3]: 0.67 and 1
B4: KASH6 core H549Y (human JAW1/LRMP amino-acids 531-555) (peptide)
chain: EDSWTSLEHILWPFTRLRYNGPPPV

stoichiometry N (KASH6 per SUN1) [3]: 1
B5: KASH6 core H539Q (human JAW1/LRMP amino-acids 531-555) (peptide)
chain: EDSWTSLEQILWPFTRLRHNGPPPV

stoichiometry N (KASH6 per SUN1) [3]: 1
B6: KASH6 core W534A (human JAW1/LRMP amino-acids 531-555) (peptide)
chain: EDSATSLEHILWPFTRLRHNGPPPV

From publication PMC10827754, “The crystal structure of SUN1-KASH6 reveals an asymmetric LINC complex architecture compatible with nuclear membrane insertion” (Communications Biology, 2024)
